First the molecules themselves.
B1: purified recombinant human GAPDH protein (enzyme)
chain: not shown
notes: also called glyceraldehyde-3-phosphate dehydrogenase
B2: DENV2 NS1 protein (natural protein)
chain: DSGCVVSWKNKELKCGSGIFITDNVHTWTEQYKFQPESPSKLASAIQKAHEEGICGIRSVTRLENLMWKQITPELNHILSENEVKLTIMTGDIKGIMQAGKRSLQPQPTELKYSWKTWGKAKMLSTESHNQTFLIDGPETAECPNTNRAWNSLEVEDYGFGVFTTNIWLKLREKQDVFCDSKLMSAAIKDNRAVHADMGYWIESALNDTWKIEKASFIEVKSCHWPKSHTLWSNGVLESEMIIPKNFAGPVSQHNYRPGYHTQTAGPWHLGKLEMDFDFCEGTTVVVTEDCGNRGPSLRTTTASGKLITEWCCRSCTLPPLRYRGEDGCWYGMEIRPLKEKEENLVNSLVTA

In assay [1] the target is T1, recombinant full-length DENV2 NS3 protein (dengue virus 2, New Guinea C (NGC) …, UniProt P14340 1476-2093).
T1 construct: also called full-length NS3
T1 sequence (P14340 1476-2093): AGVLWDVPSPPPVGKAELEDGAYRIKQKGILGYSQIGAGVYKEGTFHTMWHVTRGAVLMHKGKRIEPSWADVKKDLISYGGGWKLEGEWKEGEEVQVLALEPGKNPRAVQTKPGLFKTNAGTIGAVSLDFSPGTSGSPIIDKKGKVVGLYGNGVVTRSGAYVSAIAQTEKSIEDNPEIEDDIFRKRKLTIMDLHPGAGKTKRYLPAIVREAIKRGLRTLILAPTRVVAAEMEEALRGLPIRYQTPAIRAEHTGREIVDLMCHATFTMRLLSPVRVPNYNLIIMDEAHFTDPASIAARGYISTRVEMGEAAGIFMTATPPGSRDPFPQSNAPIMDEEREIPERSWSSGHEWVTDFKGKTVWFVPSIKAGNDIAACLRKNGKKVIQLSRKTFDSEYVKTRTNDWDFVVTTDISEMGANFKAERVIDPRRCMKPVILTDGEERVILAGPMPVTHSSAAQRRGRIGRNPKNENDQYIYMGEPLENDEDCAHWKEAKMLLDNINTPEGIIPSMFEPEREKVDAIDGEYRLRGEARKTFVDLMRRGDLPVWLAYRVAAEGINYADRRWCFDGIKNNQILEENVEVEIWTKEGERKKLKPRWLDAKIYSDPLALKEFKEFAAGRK
The assay is described as follows: SPR. The conditions noted are these: both partners purified.

In assay [2] the target is B1. The assay is described as follows: SPR; unpublished data; no conditions told; the estimate is given together with the ELISA result of ref. 39.

For orientation: Kd means the equilibrium constant for the complex coming apart. With B1, in assay [1], the Kd was found to be 310 nM.

With B2, the Kd in assay [2] is 2000 to 3000 nM.

(Values after paper PMC6389977, “Dengue virus nonstructural 3 protein interacts directly with human glyceraldehyde-3-phosphate dehydrogenase (GAPDH) and reduces its glycolytic activity” (Scientific Reports, 2019).)
